Data set [1] deals with Pdmp-lacZ reporter fusion. Briefly: Liquid β-galactosidase assay, test strain AW101 (Pdmp-lacZ fusion) carrying pAW50 dmpR derivatives, exposed to phenols. The format is cell-based, E. coli. The source says: Reference will now be made in detail to the present preferred embodiments of the present invention, examples of which are shown in the accompanying drawings. Turning now to FIG. 1, the dmpR wt-N gene (See, e.g., Shingler and Moore, supra) carried on plasmid pAW50 served as the template for amplification of the dpmR sensor domain by mutagenic polymerase chain reaction (PCR). The products resulting from the mutagenic PCR were digested using Ndel and SacII and ligated back into a pAW50 plasmid fragment, from which the wild type Ndel-SacII region had been removed. […] Ligation products were electroporated into AW101 (trp::Pdmp-lacZ fusion). Transformants were initially selected for tetracycline resistance and then replicated onto plates containing X-gal and one of the test phenols. Colonies that developed more blue color than colonies containing wild type DmpR were selected for further analysis with liquid β-galactosidase assays. β-galactosidase activity is proportional to transcription of the Pdmp-lacZ reporter fusion and is, therefore, a measure of particular variant DmpR's ability to detect phenol or specific substituted phenols. This mutagenic procedure led to the identification of more than twenty DmpR derivatives with altered response to phenols. Five of these derivatives are representative of proteins which show significant promise as effective detectors of phenols listed as primary pollutants by the U.S. Environment Protection Agency.
AW101 was used as a test strain to identify and characterize changes in DmpR's sensing capacity subsequent to sensor domain mutagenesis. pAW50 derivatives were electroporated into AW101 and transformants were selected on Luria-Bertani (Difco, Detroit, Mich.) plates containing 10.5 μg/ml tetracycline. Transformants were then replica-plated onto M9 minimal medium (10) plates containing 0.2% glucose, 30 μg/ml tryptophan, 1 μg/ml thiamine, 10.5 μg/ml tetracycline, 0.25% 5-bromo-4-chloro-3-indoyl-β-D-galactoside (X-Gal), and either no inducer (NI) or 0.05 mM of a phenol derivative. Cells that formed blue colonies on plates containing a phenol derivative were subject to liquid β-galactosidase assays.
D. β-Galactosidase Assays. Overnight cultures of AW101 carrying pAW50 derivatives were diluted 1000-fold into Luria-Bertani broth containing 10.5 μg/ml tetracycline. When cells reached an OD595 nm between 0.60 and 0.90 as measured on a Lambda Bio uv/vis spectrophotometer (Perkin Elmer Corp. Analytical Instruments, Norwalk, Conn.), 500 μL samples were pelleted and immediately resuspended in 500 μL spent Luria-Bertani broth containing the appropriate phenol compound. […] Samples were pelleted and frozen at −70° C. for assay the following day.
Liquid β-galactosidase assays were performed using a modification of Miller's assay (Miller, J. H., 1972. “Experiments in Molecular Genetics,” Cold Spring Harbor Laboratory, Cold Spring Harbor, N.Y.). Cell sample pellets were thawed and resuspended in Z buffer. The optical density at 595 nm of each cell suspension was read in a microtiter plate using an automated microplate reader (BIO-TEK Instruments, Inc., Winooski, Vt.). Following the addition of 15 μL 0.1% sodium dodecyl sulfate and 25 μL HCCl3, the remaining cell suspension was vortexed for 30 s to lyse cells. The reaction was begun with the addition of 50 μL o-nitrophenyl-β-D-galactopyranoside (2.5 mg/ml) to the lysed cells. Reactions were incubated at 26° C. until stopped with the addition of 50 μL 1M Na2CO3. Color development of the reactions was read at OD415 on the microplate reader. Arbitrary units for graphing purposes were calculated as (1000×OD415)/(time)(OD595) where time is the reaction time in minutes. Equivalent cell volumes were read for both optical densities.

The test system of data set [2] is Pdmp-lacZ reporter fusion. Kind of data set: β-galactosidase detection of phenols in contaminated soil by the bacterial test strain. It counts as cell-based, E. coli. The text has this:
FIG. 5a compares the detection of 2,4-dichlorophenol by DmpR-B9 (SEQ ID No. 1 hereof) with that for unsubstituted phenol shown in FIG. 5b in contaminated soil, unsubstituted phenol being a natural effector of wild type DmpR. Detection of chemicals in contaminated soil is often difficult because soil may bind the phenols, making them less available to the test bacteria. […] The response of DmpR-B9 to 4 parts per million (ppm) 2,4-dichlorophenol in soil is six-fold higher than that of wild type DmpR. DmpR-B9′s response to 2.5 ppm phenol is four-fold better than that of wild type.

B1: DmpR-B21: engineered DmpR derivative with mutated sensor domain (SEQ ID No. 3 and No. 9) (protein)
chain: MPIKYKPEIQHSDFKDLTNLIHFQSMEGKIWLGEQRMLLLQFSAMASFRREMVNTLGIERAKGLFLRHGYQSGLKDAELARKLRPNASEVGMFLAGPQMHSLKGLVKVRPTGLDIDKEYGRFYAEMEWIDWFEVEICQTDLGQMQDPVCWTVLGYACAYSSAFMGREIIFKEVSCRGCGG
For B1, the “increase in β-galactosidase activity” value in data set [1] (0.0025 mM solution of 2-chlorophenol (0.3 parts per million)) is reported as 60 fold. For the same molecule, in data set [1] (2,4-dichlorophenol at 0.025 mM (4 parts per million)), the “response (β-galactosidase activity)” value is “elicits a response”.

B2: DmpR-D12: engineered DmpR derivative with mutated sensor domain (SEQ ID No. 7) (protein)
chain: MPIKYKPEIQHSDFKDLTNLIHFQSMEGKIWLGEQRMLLLQFSAMASFRREMVNTLGIERAKGLFLRHGYQSGLKDAELARKLRPNASEVGMFLAGPQMHSLKGLVKVRPTELDIDKEYGRFYAEMEWIDWFEVEICQTDPGQMQDPVCWTVLGYACAYSSAFMGREIIFKEVSCRGCGG
In the case of B2, the results for the “detection relative to wild type DmpR” value in data set [1] (3 ppm 2,4-dichlorophenol) and in data set [1] (10 ppm 4-chloro-3-methylphenol) were 10 fold and “eight”, respectively.

B3: DmpR-B31: engineered DmpR derivative with mutated sensor domain (SEQ ID No. 5) (protein)
chain: MPIKYKPEIQHSDFKDLTNLIHFQSMEGKIWLGEQRMLLLQFSAMASFRREMVNTLGVERTKGLFLRHGYQSGLKDAELARKLRPNASEVGMFLAGPQMHSLKGLVKVRPTELDIDKEYGRFYAEMEWIDWFEVEICQTDLGQMQGPVCWTVLGYACAYSSAFMGREIIFKEVSCRGCGG
With B3, the “response to most substituted phenols” value in data set [1] (2,4-dichlorophenol, 2,4-dimethylphenol, 4-nitrophenol (FIG. 6a)) is “strong response”. The “uninduced (NI) value” in data set [1] (no inducer (no phenol)) was “relatively high”.

B4: DmpR-B23: engineered DmpR derivative with mutated sensor domain (SEQ ID No. 4) (protein)
chain: MPIKYKPEIRHSDFKDLTNLIHFQSMEGKIWLGEQRMLLLQFSAMASFRREMVNTLGIERAKGLFLRHGYQSGLKDAELARKLRPNASEVGMFLAGPQMHSLKGLVKVRPTELDIDMEYGRFYAEMEWIDWFEVEICQTDLGQMQDPVCWTVLGYACAYSSAFMGREIIFKEVSCRGCGG
Consider B4, for which, in data set [1] (0.5 ppm 2-chlorophenol, four-hour exposure), the “response relative to wild type DmpR” value is listed as “more than 20 fold”. The “effect of four-hour exposure on detection signal (β-galactosidase activity units)” value in data set [1] (low concentrations of 2-chlorophenol) is “increases the detection signal”. In addition, in data set [1] (six concentrations of 2-chlorophenol, 60 minute exposure), the “detection compared with wild type protein” value is “significantly better detectors”.

B5: DmpR-B9: engineered DmpR derivative with mutated sensor domain (SEQ ID No. 1) (protein)
chain: MPIEYKPEIQHSDFKDLTNLIHFQSMEGKIWLGEQRMLLLQSSAMASFRREMVNTLGIERAKGLFLRHGYQSGLKDAELARKLRPNASEVGMFLAGPQMHSLKGLVKVRPTELDIDKEYGRFYAEMEWIDWFEVEICQTDLGQMQDPVCWTVLGYACAYSSAFMGREIIFKEVSCRGCGG
As for B5, the “response relative to wild type” value in data set [2] (2.5 ppm phenol in soil) was “four”. For the same molecule, the “response relative to wild type DmpR” value in data set [2] (4 parts per million (ppm) 2,4-dichlorophenol in soil) is “six”. Moreover, in data set [2] (contaminated soil), the “capacity to detect phenols in soil compared with wild type protein” value is given as “significantly better”.

B6: DmpR-D9: engineered DmpR derivative with mutated sensor domain (SEQ ID No. 6) (protein)
chain: MPIKYKPEIQHSDFKDLTNLIHFQSMEGKIWLGEQRMLLLQFSAMASFRREMVNTLGIERAKGLFLRHGYQSGLKDAELARKLRPNASEVGMFLAGPQMHSLKGLVKVRPTELDIGREYGRFYAEMEWIDWFEVEICQTDLGQMQDPVCWTVLGYACAYSSALMGREIIFKEVSCRGCGG
Take B6: the “response relative to wild type protein” value in data set [1] (2-chlorophenol) is given as “nineteen”.

B7: DmpR-B17#2: engineered DmpR derivative with mutated sensor domain (SEQ ID No. 2) (protein)
chain: MPIKYKPEIQHSDFKDLTNLIHFQSMEGKIWLGEQRMLLLQFSAMASFRREMVNTLGIERAKGLFLRHGYQSGLKDAELARKLRPNASEVGMFLAGPQMHSLKGLVKVRPTELDIDKEYGRFYAEMEWIDWFEVEICQTDLGQMQDPVCWTVLGYACAYSSAFMGREIIFKEVSCRGCGG
For B7, the “response to low concentrations of phenol” value in data set [1] (2,4-dichlorophenol), in data set [1] (2-nitrophenol) and in data set [1] (4-nitrophenol) was “responds to low concentrations” each time. The “detection compared with wild type protein” value in data set [1] (six concentrations of 4-chloro-3-methylphenol) is given as “significantly better detectors”.

For the origin of these results see patent US6773918B2, “Detection of phenols using engineered bacteria” (The Regents of the University of California, priority 1999, dated 2004).
